Legend:
[1] = molecular target: dog factor D (in dog serum) (dog); assay: cell-based or functional assay; details: scale: times less effective than on human factor D
[2] = molecular target: human factor D (purified from human serum) (human) (UniProt P00746); assay: cell-based or functional assay
Sequence of UniProt P00746 (P00746 26-253 N180D): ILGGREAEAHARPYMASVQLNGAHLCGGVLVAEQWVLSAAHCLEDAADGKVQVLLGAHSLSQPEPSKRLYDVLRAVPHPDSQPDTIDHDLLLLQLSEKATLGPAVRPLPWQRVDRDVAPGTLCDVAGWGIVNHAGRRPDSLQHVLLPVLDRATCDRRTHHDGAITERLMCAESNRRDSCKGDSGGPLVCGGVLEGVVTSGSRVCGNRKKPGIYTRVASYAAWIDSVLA

MAb 166-32 (antibody)
neutralization of dog factor D in hemolytic assays, against human factor D [1]: > 10
alternative pathway hemolytic activity of plasma from an extracorporeal circuit with human whole blood (molar ratio (MAb:factor D)) [2]: 1.5
inhibition of factor D dependent hemolysis of unsensitized rabbit RBCs (factor D depleted human serum reconstituted with purified factor D) [2]: 0.3 µg/mL
molar ratio for inhibition of factor D dependent hemolysis (molar ratio (MAb 166-32 to factor D)) [2]: 0.5
